{"source": "patent US20220370608A1", "about": "(HUMANITAS MIRASOLE S P A, published 2022)", "binders": {"B1": {"name": "recombinant human Chitinase 3-like 1 (rhCHI3L1) (ligand)", "chain": "not shown", "notes": "Recombinant protein; also called YKL-40; CHI311"}}, "target": "T1, receptor of advanced glycation end products (RAGE) on NK cells (human, UniProt Q15109 23-404)", "T1 construct": "whole, on cells; Endogenous receptor on primary NK cells from healthy donors; also called Receptor for Advance Glycation End product", "T1 sequence (Q15109 23-404)": "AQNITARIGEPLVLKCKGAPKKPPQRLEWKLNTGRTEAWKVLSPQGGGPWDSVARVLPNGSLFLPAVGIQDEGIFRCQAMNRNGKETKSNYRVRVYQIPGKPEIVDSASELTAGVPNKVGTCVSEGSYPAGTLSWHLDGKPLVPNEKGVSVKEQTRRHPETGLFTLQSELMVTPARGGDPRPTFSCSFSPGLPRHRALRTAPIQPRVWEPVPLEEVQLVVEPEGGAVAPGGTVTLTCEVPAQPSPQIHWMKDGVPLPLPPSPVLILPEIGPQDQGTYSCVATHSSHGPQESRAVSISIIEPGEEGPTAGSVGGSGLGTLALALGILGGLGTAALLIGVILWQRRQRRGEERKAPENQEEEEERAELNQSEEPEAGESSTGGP", "experiment": "flow cytometry of RAGE on NK cells treated with rhCHI3L1, and phospho-JNK flow cytometry (binding inferred)", "description": "(a) Dot plots for RAGE expression on NK cells (left) and MFI of RAGE expression on NK cells treated with rhCHI3L1. (b) MFI of lytic granules staining in NKs treated with CHI3L1 (50 ng/ml) or anti-RAGE Blocking antibody (10 ug/ml) for 1 h. (c) effect of RAGE blockade on NK cells cytotoxicity (d) Basal P-JNK levels in NK cells treated with CHI3L1 (e) P-JNK levels in NK cells after 10 min of stimulation by RAGE ligand S100A8/A9 (10 ug/ml) alone or with rhCHI3L1 (100 ng/ml) and (f) P-JNK levels in time during ADCC of NK cells incubated with SKBR3 targets at (5:1) E:T ratio. All plots are representative of at least two\nSingle-cell suspensions, of blood or from cell culture, were obtained and incubated with Fc receptor-blocking antibody before being stained on ice. Dead cells were excluded by live/dead staining using fixable live/dead stain dyes (Thermofisher scientific). Primary NK cells [from healthy donors, after informed consent] were gated as singlets, CD14neg, FSC−. SSC appropriate for lymphocytes, CD3neg, CD16/CD56 poscells. Intracellular staining was performed using a fixation and permeabilization buffer (BD Bioscience). […] Stained cells were analyzed on FACSCanto II cytometer (BD Biosciences). […] Flow cytometry data were analyzed with FlowJo v10 software (Tree Star)."}
{"binder": "B1", "values": [{"measurement": "binding result", "result": "binds"}]}
